System: TBP2
Experiment: pull-down
Conditions: negative control, biotin-dUTP/dATP fill-in, 20 mM Tris pH 8.0, 1 mM EDTA, 5 mM DTT, 5 mM MgCl2, 100 mM KCl, 0.125% NP40, protease inhibitors, overnight at 4 C, washes 100-200 mM KCl (up to 400 mM tested)

Row | Sequence | binding signal (residual affinity) [% recovered] | binding signal (very low affinity, 5-methylcytosine at CpG (SssI), both strands) [% recovered]
1 | GATCCCGGAGTTAA / GATCTTAACTCCGG [unmethylated concatamerized GATC-CCGG-AGTTAA probe (SssI-)] | 4 | –
2 | GATCCCGGAGTTAA / GATCTTAACTCCGG [methylated concatamerized GATC-CCGG-AGTTAA probe (SssI+)] | – | < 1

Source: PMC3169474
